doi:10.1101/586255v1

Test system: N[C@@H](CO)C(=O)O
Test: purified protein, by the assay type
Settings: pH 7.6; 37.0 °C

HsSerRS (Homo sapiens)
Km: 1083 ± 156 µM
